Results: the nanobody polyreactivity screen of Harvey et al. (2022)

Assay: yeast display, Sf9 membrane polyspecificity reagent, FACS + sequencing; frameworks hold sequencing errors
In short: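 Using colony PCR, genes from sorted yeast display clones were amplified, then sequenced on MiSeq at 2 × 250 and filtered by CDR length. The clones had been stained with 10% biotinylated, detergent-solubilized Sf9 membrane reagent for 1 hour at 4 °C and sorted by FACS into low and high (top ~1%) gates on anti-HA and streptavidin fluorescence. Polyreactivity labels come from the gate of origin.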

Sequence	polyreactivity (PSR sort gate)
QVQLVESGGGLVQAGGSLRLSCAASGGIFYHNAMGWYRQAPGKERELVAAISGRGGRTYYADSVKGRFTISRDNAKNTVYLPMNSLKPEDTAVYYCNAVVYSPYRYEYWGQGTQVTVSS	low polyreactivity
QVQLVESGGGLVQAGGSLRLSCAASGRTFRKYAMGWYRQAPGTERELVAAISWSGGSTYYANSVKGRFTISRDNAKNTVYLQMNSLKPEDTAVYYGAAVPVHNGSLYWGFTTGYDYWGQGTQVTVSS	low polyreactivity
QVQLVESAGGLVQAGGILRLSCAASGRIFPYYDMGWYRQAPGKERELVAAITWNGGSTYYADSVKGRFTISRDNANNTVYLQMNSLKPEDTAVYYCAVEPYYYGEDYWGQGTQVTVSS	low polyreactivity
QVQLVESGGGLVQAGGSLRLSCAASGSTFYLYAMGWYRQAPGKEREFVAAISWSGGRTYYADSVKGRFTISRDNAKNTVYLQMNSLKPEDTAVYYCAAKPLFGTRDDYWGQGTQVTVSS	low polyreactivity
QVQLVESGGGLVQAGGSLRLRCASSGITFTLNAMGWYRQAPGKERELVAAISGSGGRTYYADSVKGRFTISRDNAKNTVYLQMNSLKPEDTAVYYCAAAVLDRYTRYIWYIYDYWGQGTQVTVSS	high polyreactivity
QVQLVESVGGLVQAGGSLRLSCAASGFIILINVMGWYRKAPGKERELVAVITGGGTTNYADSVKGRFTISRDNAKNTVYLQMNSLKPEDTAVYYCAVDAGAGDNDYWGQGTQVTVSS	low polyreactivity
QVQLVESGGGLVQAGGSLRLSCAASGSIFFINAMGWYRQAPGKERELVAAISSGGTTYYADSVKGRFTISRDNAKNTVYLQMNSLKPEDTAVYYCNAAGFPYAHTFFKGLVEYDSWGQGTQVTVSS	low polyreactivity
QVQLVESGGCLVQAGGSLRLSCAASVRTYETNAKGWYIQAPGKEREFVAAISSSGASTYYADSVKGSFTISRYNAKNTVYLQMNSLKTEDTAVYYCAARRREWGQGTQVTVSS	low polyreactivity
QVQLVESGGGLVQAGGSLRLSCAASGSIFSYYAMGWYRQAPGKERELVATISSVGSTNYADSVKGRFTISRDNPKNTVYLQMNSLKPEDTAVYYCAATIGHNGFDYWGQGTQVTVSS	low polyreactivity
QVQHVESVGRLVQAGGSLLLSCAASGSTFWIYAMGWKRQAPVKERELVAAISWRGGRTYYADSVKGRFTISRDNAKNTVYLQMYSLKPEDTGVYYCNAQKRDVSMGYWGLGTQVTVSS	high polyreactivity
QVQLVESGGGLVQAGGSLRLSCAASGRIFLNYAMGWYRQAPGKERELDAAISRRGASTYYADSVKGRFTISRENAKNTVYLQMNSLKPEDTAVYYCATVPGKSGDYWGLGTQVTVSS	high polyreactivity
QVQLVESGGGLVQAGGSLRLSCAASGRIFYWNVMGWYRQAPGKERELVAAISSSGASTSYADSEKGRFTISRDNEKNTVYLQMNSLKPEVTAGYYCDARTRRNYRQYNYWGQATQVTVSS	high polyreactivity
QVQLVESGGGLVQAGGSLRLSCAASGSTFWYNAMGWYRPAPGKERELVAAITWSGGSTYYADSVKGRFTISRDNAKNTVYLQMNSLKPEDTAVYYCAADHSAYSVFSGYKYGYWGQGTQVTVSS	low polyreactivity
QVQHVESGGGLVQAGGSHRLSCAASGSTFGSNDMRWYRQSPGKERQLVAAIRGIVGSTYYADSVKGRFTISRDHAKNTVYLQMNSLKPEDTAVYYCNKAEVSTYYQSSSTYGGYDYWGQGTQVTVSS	low polyreactivity
QVQLVQSRGGLVQAGGSLRLSCAASGSTFSGNAMGWYRPAPGKEREFVAAITSSGGSTYYADSVKGRFTISRDNAKNSVYLQMNSLKPEDTAVYYCATDNPFLWWFRPDQHGMGYWGQGTQVTVSS	low polyreactivity
QVQLVESGGCLVQAGGSLRLSCAASGRTFVTYAMRWYRQAPGKERELVAGISRRGGRTYYADSVKGRFTISRDNAKNTVYLQMNSLKPEDTAVYYCAALTYYGSDYWGQGTQVTVSS	high polyreactivity

Sequence	polyreactivity (PSR sort gate)
QVQLVESGGGLVQAGGSLRLSCAASGIILKFYAMGWYRQAPGKERELVAAISRGGRTNYADSVKGRFTISRDNANNTVYLQMNSLKPEDTAVYYCAAKSYTYYRNYDYWGQGTQVTVSA	high polyreactivity
QVQLVESGGGLVQAGGSLRLSCAASGRTFIVYAMGWYRQAPGKERELVARISSGSRTSYADSVKGRFTISRDNAKNTVYLQMNSLKPEDTAVYYCAKSRVIKYEFDYWGQGTQVTVSS	low polyreactivity
QVQLVESGGGLVQAGGSLRLSCAASGSTFASNVMGWYRQAPGKERELVAAITRGDRTHYADSVKGRFTISRDNAKNTVYLQMNSLKPEDTAVYYCAARFIFWVYDYDYWGQGSQVTVSS	low polyreactivity
QVQLVESGGGLVQAGGSLRLSCAASGITLINYAMGWYRQAPGKERELVAAISTSGSSTYYADSVKGRFTISRDNAKNTVYLQMNSLKQEDTAVYYCNAEGQPLYVSWHDHRYIYGFDYWGQGTQVTVSS	low polyreactivity
QVQLVESGGGLGQAGGSLRLSCAASGITFSGNAMRWYRQAPGKEREYVAAITWRGENTYYADSVKGRFTISRDTAKNTVSLQMNSLKPVDTAVYYCAAISPLVGLTSYRGPDDSWGQGTQVTVSS	low polyreactivity
QVQLVESGGCLVQAGGSLRLSCAASGSIFGWYDMGWYRQARGYERELVAAMTSDGSTNYADSVKGRFTISRDNAKNTVYLQKNSLKPEDTAVYYCAQDGWYYYYPYDYWGQGTQVTVSS	low polyreactivity
QGQHVESGGGLVQAGGSLRLSSAASGITISYYGMGWYRQERGKDRELVASITKRGGRTYYADSVKGRFTISRDNAKNTVYLQMNSLKPEETAVYYCAADRAAPRYDYWGQGTQVTVSS	high polyreactivity
QVQLVESGGGLVQAGGSLRLSCAASGIIFYPYAMGWYRQAPGKERELVAAISIGGGSTYYADSVKGRFTISRDYAKNTVYLQMNSLKPEDTAVYYFAAGTPYGILGFYYWGQGTQVTVSS	low polyreactivity
QVQLVESGGGLVQAGGSLRLSCAASGSTFAFYAMGWYRQAPGKEREFVAAITWDGGTTYYADSVKGRFTISLDNAKNTVYLQMNSLKPEDTAVYYCATQYLSYLYAGRYDYWGQGTQVTVSS	low polyreactivity
QVQLVESGGGLVQAGGSLRLSCAASGSTFVGYTLGWSRQAPGNERELVASLSWDGGSTYYADSVKGRFTISRDNAKNTVYLQMNSLKPEDTAVYYCNADQGIIGAYTNSLPEYDYWGLGTQVTVSS	low polyreactivity
QVQLVYSGGGLVQAGGSLRLSCAASGSIFFVYAMGWYRQAPGKERELDAAITSGGSTKDADSVKGRFTISRDNAKNTVYLQMNSLKPEDTAVYYCAKDYKCIATEGAFDYWGQGTQVTVSS	low polyreactivity
QVQLVESGGGLVQAGGSLRLSCAASGSIFWFNAMGWYRQAPGKERELVAAISTGGGTNYADSVKGRFTISRDNAKNTLYLKMNSLKPEDTAVYYCATYKVSRYISYDYWGQGPQVTVSS	low polyreactivity
QVQLVESGGGLVQAGGSLRLSCAASGSTFEYYAMGWYRQAPGKERELVAAITTSGGITYYADSVKGRFTISRDNAKNTVYLQMNSLKPEDTAVYYCNADAVPLPTLVTYLYDYWGQGTQVTVSS	low polyreactivity
QVQLVESGGGLVQAGGSLRLSCAASGITFGVYAMGWYRQAPGKERELVAAISSGDSTYYADSVKGRFTISRDNAKNTVYLQMNSLKPEDTAVYYCNAYYGVFYWDAEYGYDYWGQGTQVTVSS	high polyreactivity
QVQLEESGGGLVQAGGSLRLSCAASGRISAKYAMGWYRKAPGKERELVASISWSGGSTYYADSVKGRFTISRDNAKNTVYLQMNSLKPEDTAVYYCAADLTQQRGVRGMDYWGQGTQVTVSS	low polyreactivity
